One may read the Kd as the equilibrium constant for the complex coming apart. The low end stands for higher affinity, the high end for lower affinity.

Where no end group is shown, it is not given here.

The assay deals with Cdk2/cyclin A complex (human, UniProt P24941 1-298; P20248 173-432). The experiment in a line: fluorescence polarisation; fluorescence anisotropy; Cdk2/cyclin A binding to p27-D2-FL (20 nM); 25 °C; 20 mM Na phosphate, pH 7, 200 mM NaCl, 3.5 mM TCEP; non-linear regression on the average of three experiments. The following applies: both partners purified. For orientation: Fluorescence polarisation rises when a labelled molecule tumbles more slowly, as on binding a larger partner.

B1: p27-D2-FL (p27-D2-C99S-R93C labeled with Alexa Fluor 488) (domain or fragment)
chain: RKWNFDFQNHKPLEGKYEWQEVEKGSLPEFYYRPPC(Alexa Fluor 488 C5‑maleimide)PPKGASKVPAQE
notes: p27Kip1 (p27; CDKN1B), human, D2 sub-domain construct, residues 58-105; Cloned in pET28a; also called single-cysteine mutant of p27-D2; source: conjugated with Alexa Fluor488-C5-Maleimide and purified again by HPLC; not shown: 6xHis, N-terminal, cleaved
B1 returned a Kd of 73 ± 8 nM.

The values are drawn from publication PMC4623604, “Discovery of Small Molecules that Inhibit the Disordered Protein, p27^Kip1” (Scientific Reports, 2015).
